Source: article PMC7350215, “Features of the Human Antibody Response against the Respiratory Syncytial Virus Surface Glycoprotein G” (Vaccines, 2020)

Biological target: the molecule itself
Assay: non-reducing SDS-PAGE with immunoblot; purified A2-G separated under non-reducing or reducing conditions, blot stained with anti-His antibodies

B1: Recombinant RSV A2-derived G protein (extracellular domain of the attachment glycoprotein G, amino acids 66 to 298) (domain or fragment)
chain: NHKVTPTTAIIQDATSQIKNTTPTYLTQNPQLGISPSNPSEITSQITTILASTTPGVKSTLQSTTVKTKNTTTTQTQPSKPTTKQRQNKPPSKPNNDFHFEVFNFVPCSICSNNPTCWAICKRIPNKKPGKKTTTKPTKKPTLKTTKKDPKPQTTKSKEVPTTKPTEEPTINTTKTNIITTLLTSNTTGNPELTSQMETFHSTSSEGNPSPSQVSTTSEYPSQPSSPPNTPRQ
notes: Attachment glycoprotein G of respiratory syncytial virus strain A2, UniProtKB/Swiss-Prot P03423.1, extracellular domain, amino acids 66 to 298 (N66 to Q298); also called A2-G; recombinant His-tagged A2-G; not shown: His6, C-terminal, kept
B1: binds.
